Measurements as given in IntAct's records for PubMed 23164639.

B1: Peroxiredoxin-6 (Mus musculus), O08709 (parent)
chain: MPGGLLLGDEAPNFEANTTIGRIRFHDFLGDSWGILFSHPRDFTPVCTTELGRAAKLAPEFAKRNVKLIALSIDSVEDHLAWSKDINAYNGETPTEKLPFPIIDDKGRDLAILLGMLDPVEKDDNNMPVTARVVFIFGPDKKLKLSILYPATTGRNFDEILRVVDSLQLTGTKPVATPVDWKKGESVMVVPTLSEEEAKQCFPKGVFTKELPSGKKYLRYTPQP

Variants of: B1
Settings: with gstp1_mouse Gstp1, P19157
Chain of gstp1_mouse Gstp1, P19157 (P19157 whole entry): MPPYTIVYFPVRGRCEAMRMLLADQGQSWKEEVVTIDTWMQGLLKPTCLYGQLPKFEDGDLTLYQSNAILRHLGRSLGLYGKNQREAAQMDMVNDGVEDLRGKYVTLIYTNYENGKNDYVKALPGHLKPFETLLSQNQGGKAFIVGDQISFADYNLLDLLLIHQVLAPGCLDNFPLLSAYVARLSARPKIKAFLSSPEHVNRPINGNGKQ

| effect of a mutation on the interaction | Variant |
| --- | --- |
| disrupting interaction | C47S |
